# Results as given in the supplement of paper PMC9170038.
# System: MS2 coat protein
# Experiment: apparent KD of MS2 coat protein; higher = weaker reporter binding
# Conditions: Eterna round: R107; input ligand: arginine 13.2 mM
# Outline: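 Each design's apparent KD comes from the median of binding-curve fits to its normalised clusters. Those clusters carried RNA switches transcribed on-chip from Illumina sequencing clusters. SNAP-549-labelled MS2 coat protein was titrated onto them in twofold steps (0.7 or 1.5 nM to 3 µM; per step 0.8–1.5 h down to 10–20 min). Conditions were 100 mM Tris-HCl pH 7.5, 80 mM KCl, 4 mM MgCl2, without or with constant ligand.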
row,Sequence,apparent KD of MS2 coat protein [nM]
1,UACAUGAGGAUCACCCAUGUAUGAAUAGAUACCAGCGAAAAUAAGCGCCCUUGGCAGCUAGUGAAUAAAGGGUGGGUAAAAUAAU [Exclusion Theophyline A GF 2],8.3
2,ACAUGAGGAUCACCCAUGUAAAUAACGGAAGGAGCGUGCAAAAGCACAGGUAGGUCGCCGAUAUAAAUAUUGGGUAUUAUAUUUU [AstrosExyArgA#3],30.4
3,CGUGAUACUGGUAUACUCUGAAGAUCAAUUCGAGGACCGGUACGGCCGCCACUCGUUAGUAGACAUGAGGAUCACCCAUGUUAGU [theeternabot_exclusion_MS2_Trp_A_48],11.8
4,GCUGUACCAUGAAGGAGCGUCGUUGAUUGAGAAUACACAUGAGGAUCACCCAUGUUUUUAUGACAGGUAGGUCGCAUGGUACAGC [SSAB #16],13.8
5,AUAACAUGAGGAUCACCCAUGUAUUGGUAACGAGGACCGGUACGGCCGCCACUCGUAUUUUGGUGGUAUUAUAUAUAUAUGAUUA [JR_SSTryptoA_Sub017],24.1
6,UCGUGUAUAUCGGAUACCAGUGAAAACGAUACAUGAGGAUCACCCAUGUGAGUUGAUGUACACCCUUGGCAGCUGUAUAUAUCUA [fokullin],16.1
7,ACAUGAGGAUCACCCAUGUAUUACCGGGAAGGAGCGCGUAAGGACGCAGGUAGGUCGCUCGGCGUCCGGCCGCAAGGCUGGACGA [#1 Same State - Arginine A Attempt #17 (HarryS)],12.3
8,GUGACUUACGGGCGCCAUUUGUGAUAGGAAGGAGCGGCGAAAUAGCCAGGUAGGUCGCCUAUACAUGAGGAUCACCCAUGUCACC [Veveatonus],45.1
9,UGUGUAAUUGUCUGGUAGAUUUAUUUUUUUCGAGGACCGGUACGGCCGCCACUCGUUAUUUACAUGAGGAUCACCCAUGUUAGCU [JR_ExcTryptoA_Sub007],12.4
10,ACUACGAAGACGGCCGCCACUGAUAUUCGUAGAUCCAUCAAUACAUGAGGAUCACCCAUGUAUAUCAGGACCGGGUCAAGAUGGU [Tryp B Ex t6],23.3
11,CUAUAAGUACCGGUCCUCAGAUCCUCAUGACGAGGACCGGUACGGCCGCCACUCGAAACAUGAGGAUCACCCAUGUAAUAAUACC [Brourdmod16],17.5
12,AUACAUGAGGAUCACCCAUGUUACACUGAAGGAGCGACAUGUUUGUCAGGUAGGUCGCAGUGAAGUUUAAUAAAUAGUUGAUCUU [#07 Same State - Arginine A],37.6
13,UGAGAGGGCGGAAGGAGCGACAUGAGGAUCACCCAUGUCUCCCGUUAUGGGAGUUCUUUAGGUCAGGUAGGUCGCCGGCCUCUCA [#1 Exclusion - Arginine B Attempt #10 (Inspired by Omei)],94.3
14,GUCCAAAGGUCGGCCGCCACUGUAGGAUGUGUUCUUUCACAUGAGGAUCACCCAUGUUGUUAUUAUAGGACCGGGAUUGUAGGAC [39MS split4],16.4
15,ACAUGAGGAUCACCCAUGUGCCGUCUUGAUACCAGACGCGAAGUAGUCCCUUGGCAGCAACUACGUGACGGUCGCGCAUGUGUAG [bcxmullin],17.8
16,GAUCAAAGAUCACAUGAGGAUCACCCAUGUCGAGGACCGGUACGGCCGCCACUCGCGGCGGUGAAAAUAGAUACAAAGUAUCUAU [Ex_TrypA - ViennaApproves],40.1

# Same assay, conditions: Eterna round: R107; input ligand: none
row,Sequence,apparent KD of MS2 coat protein [nM]
1,ACAUGAGGAUCACCCAUGUAAAUAACGGAAGGAGCGUGCAAAAGCACAGGUAGGUCGCCGAUAUAAAUAUUGGGUAUUAUAUUUU [AstrosExyArgA#3],30.4
2,GCUGUACCAUGAAGGAGCGUCGUUGAUUGAGAAUACACAUGAGGAUCACCCAUGUUUUUAUGACAGGUAGGUCGCAUGGUACAGC [SSAB #16],12.9
3,ACAUGAGGAUCACCCAUGUAUUACCGGGAAGGAGCGCGUAAGGACGCAGGUAGGUCGCUCGGCGUCCGGCCGCAAGGCUGGACGA [#1 Same State - Arginine A Attempt #17 (HarryS)],16.3
4,GUGACUUACGGGCGCCAUUUGUGAUAGGAAGGAGCGGCGAAAUAGCCAGGUAGGUCGCCUAUACAUGAGGAUCACCCAUGUCACC [Veveatonus],105
5,AUACAUGAGGAUCACCCAUGUUACACUGAAGGAGCGACAUGUUUGUCAGGUAGGUCGCAGUGAAGUUUAAUAAAUAGUUGAUCUU [#07 Same State - Arginine A],57
6,UGAGAGGGCGGAAGGAGCGACAUGAGGAUCACCCAUGUCUCCCGUUAUGGGAGUUCUUUAGGUCAGGUAGGUCGCCGGCCUCUCA [#1 Exclusion - Arginine B Attempt #10 (Inspired by Omei)],122

# Same assay, conditions: Eterna round: R107; input ligand: theophylline 20 uM
row,Sequence,apparent KD of MS2 coat protein [nM]
1,UACAUGAGGAUCACCCAUGUAUGAAUAGAUACCAGCGAAAAUAAGCGCCCUUGGCAGCUAGUGAAUAAAGGGUGGGUAAAAUAAU [Exclusion Theophyline A GF 2],13.6
2,ACAUGAGGAUCACCCAUGUAAAUAACGGAAGGAGCGUGCAAAAGCACAGGUAGGUCGCCGAUAUAAAUAUUGGGUAUUAUAUUUU [AstrosExyArgA#3],40.3
3,CGUGAUACUGGUAUACUCUGAAGAUCAAUUCGAGGACCGGUACGGCCGCCACUCGUUAGUAGACAUGAGGAUCACCCAUGUUAGU [theeternabot_exclusion_MS2_Trp_A_48],20.6
4,GCUGUACCAUGAAGGAGCGUCGUUGAUUGAGAAUACACAUGAGGAUCACCCAUGUUUUUAUGACAGGUAGGUCGCAUGGUACAGC [SSAB #16],25.1
5,AUAACAUGAGGAUCACCCAUGUAUUGGUAACGAGGACCGGUACGGCCGCCACUCGUAUUUUGGUGGUAUUAUAUAUAUAUGAUUA [JR_SSTryptoA_Sub017],28.9
6,UCGUGUAUAUCGGAUACCAGUGAAAACGAUACAUGAGGAUCACCCAUGUGAGUUGAUGUACACCCUUGGCAGCUGUAUAUAUCUA [fokullin],22.7
7,ACAUGAGGAUCACCCAUGUAUUACCGGGAAGGAGCGCGUAAGGACGCAGGUAGGUCGCUCGGCGUCCGGCCGCAAGGCUGGACGA [#1 Same State - Arginine A Attempt #17 (HarryS)],18.1
8,GUGACUUACGGGCGCCAUUUGUGAUAGGAAGGAGCGGCGAAAUAGCCAGGUAGGUCGCCUAUACAUGAGGAUCACCCAUGUCACC [Veveatonus],64.9
9,UGUGUAAUUGUCUGGUAGAUUUAUUUUUUUCGAGGACCGGUACGGCCGCCACUCGUUAUUUACAUGAGGAUCACCCAUGUUAGCU [JR_ExcTryptoA_Sub007],22.3
10,ACUACGAAGACGGCCGCCACUGAUAUUCGUAGAUCCAUCAAUACAUGAGGAUCACCCAUGUAUAUCAGGACCGGGUCAAGAUGGU [Tryp B Ex t6],39.2
11,CUAUAAGUACCGGUCCUCAGAUCCUCAUGACGAGGACCGGUACGGCCGCCACUCGAAACAUGAGGAUCACCCAUGUAAUAAUACC [Brourdmod16],47.5
12,AUACAUGAGGAUCACCCAUGUUACACUGAAGGAGCGACAUGUUUGUCAGGUAGGUCGCAGUGAAGUUUAAUAAAUAGUUGAUCUU [#07 Same State - Arginine A],56.8
13,UGAGAGGGCGGAAGGAGCGACAUGAGGAUCACCCAUGUCUCCCGUUAUGGGAGUUCUUUAGGUCAGGUAGGUCGCCGGCCUCUCA [#1 Exclusion - Arginine B Attempt #10 (Inspired by Omei)],104
14,GUCCAAAGGUCGGCCGCCACUGUAGGAUGUGUUCUUUCACAUGAGGAUCACCCAUGUUGUUAUUAUAGGACCGGGAUUGUAGGAC [39MS split4],32.2
15,ACAUGAGGAUCACCCAUGUGCCGUCUUGAUACCAGACGCGAAGUAGUCCCUUGGCAGCAACUACGUGACGGUCGCGCAUGUGUAG [bcxmullin],21.4
16,GAUCAAAGAUCACAUGAGGAUCACCCAUGUCGAGGACCGGUACGGCCGCCACUCGCGGCGGUGAAAAUAGAUACAAAGUAUCUAU [Ex_TrypA - ViennaApproves],83.9

# Same assay, conditions: Eterna round: R107; input ligand: theophylline 2 mM
row,Sequence,apparent KD of MS2 coat protein [nM]
1,ACAUGAGGAUCACCCAUGUAAAUAACGGAAGGAGCGUGCAAAAGCACAGGUAGGUCGCCGAUAUAAAUAUUGGGUAUUAUAUUUU [AstrosExyArgA#3],31.7
2,CGUGAUACUGGUAUACUCUGAAGAUCAAUUCGAGGACCGGUACGGCCGCCACUCGUUAGUAGACAUGAGGAUCACCCAUGUUAGU [theeternabot_exclusion_MS2_Trp_A_48],17.7
3,GCUGUACCAUGAAGGAGCGUCGUUGAUUGAGAAUACACAUGAGGAUCACCCAUGUUUUUAUGACAGGUAGGUCGCAUGGUACAGC [SSAB #16],18.9
4,AUAACAUGAGGAUCACCCAUGUAUUGGUAACGAGGACCGGUACGGCCGCCACUCGUAUUUUGGUGGUAUUAUAUAUAUAUGAUUA [JR_SSTryptoA_Sub017],20.6
5,ACAUGAGGAUCACCCAUGUAUUACCGGGAAGGAGCGCGUAAGGACGCAGGUAGGUCGCUCGGCGUCCGGCCGCAAGGCUGGACGA [#1 Same State - Arginine A Attempt #17 (HarryS)],16.4
6,GUGACUUACGGGCGCCAUUUGUGAUAGGAAGGAGCGGCGAAAUAGCCAGGUAGGUCGCCUAUACAUGAGGAUCACCCAUGUCACC [Veveatonus],84.6
7,UGUGUAAUUGUCUGGUAGAUUUAUUUUUUUCGAGGACCGGUACGGCCGCCACUCGUUAUUUACAUGAGGAUCACCCAUGUUAGCU [JR_ExcTryptoA_Sub007],15.5
8,ACUACGAAGACGGCCGCCACUGAUAUUCGUAGAUCCAUCAAUACAUGAGGAUCACCCAUGUAUAUCAGGACCGGGUCAAGAUGGU [Tryp B Ex t6],28.2
9,CUAUAAGUACCGGUCCUCAGAUCCUCAUGACGAGGACCGGUACGGCCGCCACUCGAAACAUGAGGAUCACCCAUGUAAUAAUACC [Brourdmod16],62.6
10,AUACAUGAGGAUCACCCAUGUUACACUGAAGGAGCGACAUGUUUGUCAGGUAGGUCGCAGUGAAGUUUAAUAAAUAGUUGAUCUU [#07 Same State - Arginine A],62.6
11,UGAGAGGGCGGAAGGAGCGACAUGAGGAUCACCCAUGUCUCCCGUUAUGGGAGUUCUUUAGGUCAGGUAGGUCGCCGGCCUCUCA [#1 Exclusion - Arginine B Attempt #10 (Inspired by Omei)],127
12,GUCCAAAGGUCGGCCGCCACUGUAGGAUGUGUUCUUUCACAUGAGGAUCACCCAUGUUGUUAUUAUAGGACCGGGAUUGUAGGAC [39MS split4],21.5
13,GAUCAAAGAUCACAUGAGGAUCACCCAUGUCGAGGACCGGUACGGCCGCCACUCGCGGCGGUGAAAAUAGAUACAAAGUAUCUAU [Ex_TrypA - ViennaApproves],86.1

# Same assay, conditions: Eterna round: R107; input ligand: tryptophan 2.4 mM
row,Sequence,apparent KD of MS2 coat protein [nM]
1,UACAUGAGGAUCACCCAUGUAUGAAUAGAUACCAGCGAAAAUAAGCGCCCUUGGCAGCUAGUGAAUAAAGGGUGGGUAAAAUAAU [Exclusion Theophyline A GF 2],9.41
2,ACAUGAGGAUCACCCAUGUAAAUAACGGAAGGAGCGUGCAAAAGCACAGGUAGGUCGCCGAUAUAAAUAUUGGGUAUUAUAUUUU [AstrosExyArgA#3],29.6
3,GCUGUACCAUGAAGGAGCGUCGUUGAUUGAGAAUACACAUGAGGAUCACCCAUGUUUUUAUGACAGGUAGGUCGCAUGGUACAGC [SSAB #16],12.1
4,UCGUGUAUAUCGGAUACCAGUGAAAACGAUACAUGAGGAUCACCCAUGUGAGUUGAUGUACACCCUUGGCAGCUGUAUAUAUCUA [fokullin],18.6
5,ACAUGAGGAUCACCCAUGUAUUACCGGGAAGGAGCGCGUAAGGACGCAGGUAGGUCGCUCGGCGUCCGGCCGCAAGGCUGGACGA [#1 Same State - Arginine A Attempt #17 (HarryS)],15.2
6,GUGACUUACGGGCGCCAUUUGUGAUAGGAAGGAGCGGCGAAAUAGCCAGGUAGGUCGCCUAUACAUGAGGAUCACCCAUGUCACC [Veveatonus],72.6
7,AUACAUGAGGAUCACCCAUGUUACACUGAAGGAGCGACAUGUUUGUCAGGUAGGUCGCAGUGAAGUUUAAUAAAUAGUUGAUCUU [#07 Same State - Arginine A],37
8,UGAGAGGGCGGAAGGAGCGACAUGAGGAUCACCCAUGUCUCCCGUUAUGGGAGUUCUUUAGGUCAGGUAGGUCGCCGGCCUCUCA [#1 Exclusion - Arginine B Attempt #10 (Inspired by Omei)],111
9,ACAUGAGGAUCACCCAUGUGCCGUCUUGAUACCAGACGCGAAGUAGUCCCUUGGCAGCAACUACGUGACGGUCGCGCAUGUGUAG [bcxmullin],16.1
